Assay results from the supplement of paper PMC10899765.

Legend:
Details in all cases: 20 nM; 72 h
MCF10A [1] = assay: percent viability (nuclei count relative to siNT); higher = more viable cells
Protocol: (§1)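 After 72 h, cells were fixed and stained with Hoechst and anti-fibrillarin, and nucleoli per nucleus were counted with CellProfiler. Values are plate-adjusted percent effect for the one-nucleolus and 5+ nucleoli phenotypes, normalised to siNT (0%) and to the positive controls siNOL11 or siKIF11 (100%), as the mean of biological triplicates. Percent viability is the nuclei count relative to siNT.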

MCF10A [2] = assay: 5+ nucleoli phenotype percent effect (relative to siNT 0% and siKIF11 100%); higher = more cells with five or more nucleoli
Protocol: as §1

MCF10A [3] = assay: one-nucleolus phenotype percent effect (relative to siNT 0% and siNOL11 100%); higher = more cells with one nucleolus (ribosome biogenesis inhibition)
Protocol: as §1

Sequence | percent viability (MCF10A [1]) [%] | 5+ nucleoli phenotype percent effect (MCF10A [2]) [%] | one-nucleolus phenotype percent effect (MCF10A [3]) [%]
UGGGAACGGGUUCCGGCAGACGCUG [hsa-miR-1292-5p] | 60.3 | -16.7 | 13.5
UGGGAACUUAGUAGAGGUUUAA [hsa-miR-4471] | 26.7 | 7.89 | 5.31
UGGGAAUGGGGGUAAGGGCC [hsa-miR-6716-5p] | 28.8 | -19.9 | 19.7
UGGGAGAGAGGACUGUGAGGC [hsa-miR-8085] | 12.6 | -1.75 | 21.4
UGGGAGAGCAGGGUAUUGUGGA [hsa-miR-6731-5p] | 6.77 | -22.2 | 43
UGGGAGCCAUGAGGGUCUGUGC [hsa-miR-6827-5p] | 15.6 | -1.65 | 26.3
UGGGAGCUAAGCUAUGGGUAU [hsa-miR-5591-5p] | 13.9 | -6.94 | 13.6
UGGGAGCUGGACUACUUC [hsa-miR-4300] | 19.7 | 16.1 | 21.3
UGGGAGGAGGGGAUCUUGGG [hsa-miR-7106-5p] | 34.9 | 21.2 | -7.27
UGGGAGGGCGUGGAUGAUGGUG [hsa-miR-6785-5p] | 51.8 | 15 | -4.23
UGGGAGGGGAGAGGCAGCAAGCA [hsa-miR-4728-5p] | 7 | -29.9 | 46
UGGGAUCCAGACAGUGGGAGAA [hsa-miR-4713-3p] | 26 | 16.3 | -1.28
UGGGAUGAGGGAUUGAAGUGGA [hsa-miR-5187-5p] | 25.8 | 24.8 | -17.7
UGGGCAGGGGCUUAUUGUAGGAG [hsa-miR-6721-5p] | 21.3 | 22 | 19.5
UGGGCCAGGGAGCAGCUGGUGGG [hsa-miR-4640-5p] | 54.9 | 7.66 | 15.3
UGGGCCAUGCAUUUCUAGAACU [hsa-miR-6508-3p] | 40.2 | -35 | 41.6
UGGGCGAGGGCGGCUGAGCGGC [hsa-miR-6729-5p] | 29 | -3.58 | 6.3
UGGGCGAGGGGUGGGCUCUCAGAG [hsa-miR-4649-5p] | 45.5 | 19.2 | 1.85
UGGGCGUAUCUGUAUGCUA [hsa-miR-585] | 39.1 | -5.6 | 41.1
UGGGCUAAGGGAGAUGAUUGGGUA [hsa-miR-664b-5p] | 32.1 | 2.04 | 5.55
UGGGCUCAGGGUACAAAGGUU [hsa-miR-4437] | 24.3 | -5.83 | 28.8
UGGGCUGAGGGCAGGAGGCCUGU [hsa-miR-4656] | 9.2 | 20.8 | 22.2
UGGGCUGCUGAGAAGGGGCA [hsa-miR-6829-5p] | 7.58 | 2.03 | 37.7
UGGGCUGGCAGGGCAAGUGCUG [hsa-miR-4498] | 9.7 | -6.13 | 38.7
UGGGGAAGGCGUCAGUGUCGGG [hsa-miR-4725-3p] | 28.1 | -3 | 26
UGGGGAAGGCUUGGCAGGGAAGA [hsa-miR-6780b-5p] | 25.6 | -35.6 | 38
UGGGGACGUAGCUGGCCAGACAG [hsa-miR-3191-3p] | 26.7 | 4.11 | 32.8
UGGGGAGCGGCCCCCGGGUGGG [hsa-miR-1343-5p] | 86 | 48.5 | -31.1
UGGGGAGCUGAGGCUCUGGGGGUG [hsa-miR-939-5p] | 82.5 | 17 | -7.29
